The text below walks through data of article PMC11245307, “Evolutionary adaptation of an HP1-protein chromodomain integrates chromatin and DNA sequence signals” (eLife, 2024).

Positions count from the first letter of the chain named. Ends that are not written are not given here. Me3 = trimethyl (on lysine, trimethyl-lysine)

Common to all, as to assay: ITC; chromodomain at 100 µM, H3K9me3 peptide at approximately 1 mM; 20 mM Tris, pH 8.0, 25 mM NaCl, 2 mM β-mercaptoethanol; 20°C; MicroCal iTC200, sixteen 2.5 µl injections
Common to all, as to details: both partners purified
Background: In ITC the heat of successive injections is recorded.

The target of test [1] is T1, Rhino chromodomain, wildtype construct (Rhino residues 20-90) (D. melanogaster, UniProt Q7JXA8 20-90).
T1 construct: Rhino (HP1d), D. melanogaster, chromodomain construct spanning residues 20-90; Expressed as His6-SUMO-RhinoCD in pET-28; the tag was removed with Ulp1 protease; also called RhinoCD; wildtype domain; source: E. coli BL21-CodonPlus (DE3)-RIPL, purified (Ni-NTA, Ulp1 cleavage, ion exchange, Superdex75); not shown: His6, N-terminal, cleaved; SUMO, N-terminal, cleaved
T1 sequence (looked up): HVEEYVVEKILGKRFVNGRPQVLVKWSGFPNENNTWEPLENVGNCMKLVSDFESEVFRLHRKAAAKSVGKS

Test [2] concerns the target T2, Rhino chromodomain G31A (Rhino residues 20-90) (D. melanogaster, UniProt Q7JXA8 20-90, G31A).
T2 construct: Rhino (HP1d), D. melanogaster, chromodomain construct spanning residues 20-90, with G31A; also called G31A mutant; source: E. coli BL21-CodonPlus (DE3)-RIPL, purified (Ni-NTA, Ulp1 cleavage, ion exchange, Superdex75); not shown: His6, N-terminal, cleaved; SUMO, N-terminal, cleaved
T2 sequence (looked up): T1 sequence (looked up) with G12A

Test [3] addresses T3, Rhino chromodomain G31D (Rhino residues 20-90) (D. melanogaster, UniProt Q7JXA8 20-90, G31D).
T3 construct: Rhino (HP1d), D. melanogaster, chromodomain construct spanning residues 20-90, with G31D; also called Rhino^G31D chromodomain; source: E. coli BL21-CodonPlus (DE3)-RIPL, purified (Ni-NTA, Ulp1 cleavage, ion exchange, Superdex75); not shown: His6, N-terminal, cleaved; SUMO, N-terminal, cleaved
T3 sequence (looked up): T1 sequence (looked up) with G12D

B1: H3K9me3 peptide (KQTAR-K[me3]-STGGK) (peptide)
peptide: KQTARK(Me3)STGGK
notes: histone H3 N-terminal tail, K4 to K14 with K9 trimethylated; also called H3K9me3-modified histone tail peptide; synthetic H3K9me3 peptides; source: synthetic peptide; bought: AnaSpec, Inc
For the molecule B1, the Kd – broadly, a measure of binding affinity in units of concentration – in test [1] was determined as 30.9 ± 3 µM; in test [2], 43.5 ± 8.6 µM; in test [3] it was 31.1 ± 3.2 µM.
